From patent US20250269018A1, “COMBINED CANCER THERAPY WITH AN EPITHELIAL CELL ADHESION MOLECULE (EPCAM) INHIBITOR AND A HEPATOCYTE GROWTH FACTOR RECEPTOR (HGFR) INHIBITOR” (ACADEMIA SINICA, priority 2021, published 2025)

Legend:
EpEX binding to HGFR = target: T1, EpEX binding to HGFR (Homo sapiens, UniProt P16422); assay: ELISA of EpEX-His binding to HGFR-Fc-coated plates; details: EpEX-His 2 μg/ml with 1 μg antibody; HGFR-Fc 1 μg/ml coated; FIG. 6F
T1 construct: the soluble extracellular domain of EpCAM (EpEX); His; made in house; host or cells: Expi293
T1 sequence (P16422 24-265 limits assumed): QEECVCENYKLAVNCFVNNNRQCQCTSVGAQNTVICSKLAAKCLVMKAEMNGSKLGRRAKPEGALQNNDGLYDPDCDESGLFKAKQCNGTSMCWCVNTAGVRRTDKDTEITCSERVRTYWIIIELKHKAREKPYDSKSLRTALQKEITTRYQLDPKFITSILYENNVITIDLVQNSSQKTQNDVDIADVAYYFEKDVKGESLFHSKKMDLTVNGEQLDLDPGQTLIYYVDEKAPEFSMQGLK
Description: FIGS. 6A to 6J. EpAb2-6 inhibits EpCAM and HGFR signaling and promotes active β-catenin and Snail protein degradation via activating GSK3β. (FIG. 6A) HCT116 cells were treated with 10 μg/ml control IgG (normal mouse IgG, NMIgG) or mouse EpAb2-6 (EpAb2-6) for 16 h, followed by treatment with EpEX-His (50 nM) for 15 min. Levels of phosphorylated HGFR, AKT, FAK, GSK3β, ERK, ADAM17, and presenilin 2 were examined by Western blotting. (FIG. 6B) HCT116 cells were treated with 10 μg/ml control IgG or mouse EpAb2-6 for 16 h, followed by treatment without or with HGF (0.5 nM) for 15 min. Levels of phosphorylated HGFR, AKT, and ERK were examined by Western blotting. HCT116 cells were treated with mouse EpAb2-6 (10 μg/ml) and HGF (0.5 nM). […] (FIG. 6D) Cell invasion was assessed by a Transwell assay with matrigel after 24 h. […] (FIG. 6F) EpEX-His (2 μg/ml) co-treated with 1 μg IgG or EpAb2-6 was added to HGFR-Fc-coated (1 μg/ml) ELISA plates and detected by TMB colorimetric peroxidase assay. (FIG. 6G) EMT associated protein levels were detected by Western blotting in HCT116 cells treated with NMIgG or EpAb2-6 for 24 h. (FIG. 6H) Protein expression was analyzed by Western blotting in HCT116 cells after treatment with EpAb2-6 and 2 μM GSK3β inhibitor (BIO) for 24 h. Quantification of the normalized protein expression in the bottom panel. […]

EpCAM = target: T2, EpCAM (Homo sapiens, UniProt P16422); assay: Antibody binding to EpCAM wild-type and mutants expressed in HEK293T cells (immunofluorescence, flow cytometry, cellular ELISA); details: conclusion from deletion and point mutants
T2 sequence (P16422 24-314): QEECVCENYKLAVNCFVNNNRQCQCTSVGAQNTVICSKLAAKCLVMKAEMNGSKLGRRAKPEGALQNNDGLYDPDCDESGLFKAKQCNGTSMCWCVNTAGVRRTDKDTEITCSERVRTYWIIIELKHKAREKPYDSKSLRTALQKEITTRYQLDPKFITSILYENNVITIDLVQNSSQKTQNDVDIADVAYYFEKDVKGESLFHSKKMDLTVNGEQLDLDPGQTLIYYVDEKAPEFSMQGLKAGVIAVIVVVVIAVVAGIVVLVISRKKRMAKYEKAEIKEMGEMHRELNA
Description: FIGS. 8A to 8G. EpAb2-6 binds to both EGF-like domain I and II of EpCAM. HEK293T cells were transfected with full length or EGF like-domain deletion mutant EpCAM-V5. Antibody binding was assessed by (FIG. 8A) Western blotting, (FIG. 8B) flow cytometry, and (FIG. 8C) immunofluorescence. (FIG. 8D) EpCAM mutants were constructed with amino acid substitutions in the EGF-I (Y32A) and EGF-II (L94A, Y95A, or D96A) domains. EpCAM wild-type and mutant proteins were expressed in HEK293T cells. Binding of MT201, EpAb2-6 and EpAb23-1 to EpCAM wild-type and mutants were evaluated by (FIG. 8E) immunofluorescence, (FIG. 8F) flow cytometry, and (FIG. 8G) cellular ELISA.
A previous study identified the binding epitope of EpAb2-6 antibody as the LYD motif in EpCAM, which corresponds to amino acid residues 94-96; in particular, residue 95 (Y95) plays a major role in EpAb2-6 binding (Liao et al., 2015). […] Therefore, we wanted to determine whether the antibody binds to EpCAM at both EGF-like domains of EpEX (FIG. 8A, FIG. 8B, FIG. 8C). To confirm that EpAb2-6 recognizes the LYD motif in EpCAM, we constructed cDNA sequences encoding the first (aa 27-59; EGF-I domain) and second (aa 66-135; EGF-II/TY domain) EGF-like repeats of EpCAM. PCR-based site-directed mutagenesis was then used to introduce mutations into each domain (FIG. 8D). The reactivity of EpAb2-6 antibody toward these EpCAM mutants was evaluated by immunofluorescence (FIG. 8E), flow cytometry (FIG. 8F), and cellular ELISA (FIG. 8G).

HCT116-Luc cells = assay: Orthotopic animal model, HCT116-Luc; details: EpAb2-6 15 mg/kg, crizotinib 20 mg/kg, FIG. 9D, 9E
Description: (FIG. 9C) Timeline of the experiment to evaluate EpAb2-6 and/or crizotinib in the in orthotopic animal models. (FIG. 9D) NOD/SCID mice received orthotopic implantation of HCT116-Luc cells and then were treated with control IgG (normal mouse IgG, NMIgG), crizotinib, EpAb2-6, or crizotinib combined with EpAb2-6 starting at 3 days after tumor inoculation (n=5). Tumor growth was monitored by examining bioluminescence with the IVIS 200 Imaging System. (FIG. 9E) HCT116-Luc tumor cells monitored by bioluminescence quantification. […] (FIG. 9H) NOD/SCID mice were orthotopically implanted with HT29-Luc cells and then treated with control IgG, crizotinib, EpAb2-6, or crizotinib combined with EpAb2-6 starting at 3 days after tumor inoculation (n=5). Tumor growth was monitored by examining bioluminescence with an IVIS 200 Imaging System. (FIG. 9I) HT29-Luc tumor cells monitored by bioluminescence quantification.
Orthotopic tumor models were created as previously reported (Chen et al., 2020). Briefly, NSCID mice were used for orthotopic implantation of HCT116 cells previously infected with Lenti-luc virus (lentivirus containing luciferase gene). […] Tumor development was monitored by bioluminescence imaging. […] Tumor progression was monitored by quantification of bioluminescence. Mouse survival was also monitored.

B1: EpAb2-6: anti-EpCAM neutralizing monoclonal antibody targeting EpEX; VH SEQ ID NO: 15, VL SEQ ID NO: 16 (antibody, listed as Homo sapiens, V domains shown)
VH: VKLQESGPELKKPGETVKISCKASGYTFTDYSMHWVKQAPGKGLKWMGWINTETGEPTYADDFKGRFAFSLETSASTAYLQINNLKNEDTATYFCARTAVYWGQGTTVTVSS
VL: DIQMTQSPSSLSASLGERVSLTCRASQEISVSLSWLQQEPDGTIKRLIYATSTLDSGVPKRFSGSRSGSDYSLTISSLESEDFVDYYCLQYASYPWTFGGGTKLEIKRADAAPTVS
EpEX binding to HGFR
  EpEX binding to HGFR: inhibit EpEX binding to HGFR
EpCAM
  EpEX domains and residues bound: binds to the EGF-I and EGF-II domains of EpEX, respectively targeting amino acid residues Y32 and Y95
HCT116-Luc cells
  bioluminescence intensities: significantly decreased compared to the control IgG or crizotinib alone groups
